Values belong to the binder of their own block, whether it stands above or below them.
Tests used:
[1] = target: human β-secretase 1 (BACE1), extracellular/catalytic domain (human) (UniProt P56817); assay: FRET peptide inhibition assay; KI=IC50/(S/Km+1)
[2] = target: human β-secretase 1 (BACE1), extracellular/catalytic domain (human) (UniProt P56817); assay: biolayer interferometry; biotinylated protease on streptavidin sensor, Fab in solution
[3] = target: human β-secretase 1 (BACE1), extracellular/catalytic domain (human) (UniProt P56817); assay: enzyme inhibition assay with FRET peptide substrate (M-2420), Fab titrated on BACE1 [panel B2B2]
[4] = target: human β-secretase 1 (BACE1), extracellular/catalytic domain (human) (UniProt P56817); assay: bio-layer interferometry (ForteBio), biotinylated protease on streptavidin biosensor, Fab in solution [panel B2B2]
[5] = target: human β-secretase 1 (BACE1), extracellular/catalytic domain (human) (UniProt P56817); assay: enzyme inhibition assay with FRET peptide substrate (M-2420), Fab titrated on BACE1 [panel B2B3]
[6] = target: human β-secretase 1 (BACE1), extracellular/catalytic domain (human) (UniProt P56817); assay: bio-layer interferometry (ForteBio), biotinylated protease on streptavidin biosensor, Fab in solution [panel B2B3]
[7] = target: human β-secretase 1 (BACE1), extracellular/catalytic domain (human) (UniProt P56817); assay: enzyme inhibition assay with FRET peptide substrate (M-2420), Fab titrated on BACE1 [panel B2B5]
[8] = target: human β-secretase 1 (BACE1), extracellular/catalytic domain (human) (UniProt P56817); assay: bio-layer interferometry (ForteBio), biotinylated protease on streptavidin biosensor, Fab in solution [panel B2B5]
[9] = target: catalytic domain of MMP-9 (cdMMP-9) (UniProt P14780); assay: bio-layer interferometry
[10] = target: catalytic domain of MMP-9 (cdMMP-9) (UniProt P14780); assay: FRET peptide inhibition assay
[11] = target: catalytic domain of MMP-9 (cdMMP-9) (UniProt P14780); assay: bio-layer interferometry; reference cdMMP-12 wt
[12] = target: catalytic domain of MMP-9 (cdMMP-9) (UniProt P14780); assay: FRET peptide inhibition assay; reference cdMMP-12 mutant D4
[13] = target: human β-secretase 1 (BACE1), extracellular/catalytic domain (human) (UniProt P56817); assay: enzyme inhibition assay with FRET peptide substrate (M-2420), Fab titrated on BACE1 [panel B1A4]
[14] = target: human β-secretase 1 (BACE1), extracellular/catalytic domain (human) (UniProt P56817); assay: bio-layer interferometry (ForteBio), biotinylated protease on streptavidin biosensor, Fab in solution [panel B1A4]
[15] = target: human β-secretase 1 (BACE1), extracellular/catalytic domain (human) (UniProt P56817); assay: biolayer interferometry; IgG on protein A sensor, protease in solution
[16] = target: human β-secretase 1 (BACE1), extracellular/catalytic domain (human) (UniProt P56817); assay: enzyme inhibition assay with FRET peptide substrate, IgG titrated on BACE1 [panel A]
[17] = target: human β-secretase 1 (BACE1), extracellular/catalytic domain (human) (UniProt P56817); assay: enzyme inhibition assay with FRET peptide substrate (M-2420), Fab titrated on BACE1 [panel B1B3]
[18] = target: human β-secretase 1 (BACE1), extracellular/catalytic domain (human) (UniProt P56817); assay: bio-layer interferometry (ForteBio), biotinylated protease on streptavidin biosensor, Fab in solution [panel B1B3]

human β-secretase 1 (BACE1), extracellular/catalytic domain (human), sequence (P56817 46-457 limits assumed, form in doubt): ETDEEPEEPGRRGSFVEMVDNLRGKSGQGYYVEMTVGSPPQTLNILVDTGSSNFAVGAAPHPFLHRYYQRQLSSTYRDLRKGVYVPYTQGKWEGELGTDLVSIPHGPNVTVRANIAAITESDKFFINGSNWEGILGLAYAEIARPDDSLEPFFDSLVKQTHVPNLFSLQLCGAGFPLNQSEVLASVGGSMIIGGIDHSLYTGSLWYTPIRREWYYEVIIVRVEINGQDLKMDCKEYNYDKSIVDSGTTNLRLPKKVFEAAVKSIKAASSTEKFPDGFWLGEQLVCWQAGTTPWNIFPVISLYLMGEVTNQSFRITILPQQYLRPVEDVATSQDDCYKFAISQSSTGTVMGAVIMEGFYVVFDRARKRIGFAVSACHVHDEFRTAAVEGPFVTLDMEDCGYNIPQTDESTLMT

Ki [1]: 87 nM
Kd [2]: 52 nM
IC50 [3]: 110 nM
koff [4]: 0.0091 s⁻¹
kon [4]: 180000 M⁻¹ s⁻¹
B1: anti-BACE1 Fab B2B2 (Fab, V domains shown)
VH: EVQLVESGGGLVQPGGSLRLSCAASGFNISSYYMHWVRQAPGKGLEWVASIYSSYGYTYYADSVKGRFTISADTSKNTAYLQMNSLRAEDTAVYYCARYWGYYAWFGSHPWAYGAFDYWGQGTLVTVSS
VL: DIQMTQSPSSLSASVGDRVTITCRASQSVSSAVAWYQQKPGKAPKLLIYSASSLYSGVPSRFSGSRSGTDFTLTISSLQPEDFATYYCQQYGYYLITFGQGTKVEIKR

Ki [1]: 100 nM
Kd [2]: 100 nM
IC50 [5]: 130 nM
koff [6]: 0.0097 s⁻¹
kon [6]: 93000 M⁻¹ s⁻¹
B2: anti-BACE1 Fab B2B3 (Fab, V domains shown)
VH: EVQLVESGGGLVQPGGSLRLSCAASGFNISYSSIHWVRQAPGKGLEWVAYISSYSSSTYYADSVKGRFTISADTSKNTAYLQMNSLRAEDTAVYYCARSASGIDYWGQGTLVTVSS
VL: DIQMTQSPSSLSASVGDRVTITCRASQSVSSAVAWYQQKPGKAPKLLIYSASSLYSGVPSRFSGSRSGTDFTLTISSLQPEDFATYYCQQSGYAPFTFGQGTKVEIKR

Ki [1]: 77 nM
Kd [2]: 130 nM
IC50 [7]: 97 nM
koff [8]: 0.024 s⁻¹
kon [8]: 180000 M⁻¹ s⁻¹
B3: anti-BACE1 Fab B2B5 (Fab, V domains shown)
VH: EVQLVESGGGLVQPGGSLRLSCAASGFNIYYSYMHWVRQAPGKGLEWVASIYPYYGSTYYADSVKGRFTISADTSKNTAYLQMNSLRAEDTAVYYCARWHGYPPGYSYYSSFSSSGFDYWGQGTLVTVSS
VL: DIQMTQSPSSLSASVGDRVTITCRASQSVSSAVAWYQQKPGKAPKLLIYSASSLYSGVPSRFSGSRSGTDFTPTISSLQPEDFATYYCQQSYFSYPITFGQGTKVEIKR

Kd [9]: 740 nM
Ki [10]: 6.2 µM
fold (KD compared with cdMMP-12 wt) [11]: 9.9 fold
fold (KI compared with cdMMP-12 mutant D4) [12]: 83 fold
B4: anti-MMP-12 Fab LH11 (Fab, V domains shown)
VH: EVQLVESGGGLVQPGGSLRLSCAASGFNLSYYSMHWVRQAPGKGLEWVAYIYPYYGSTYYADSVKGRFTISADTSKNTAYLQMNSLRAEDTAVYYCARFLLSIGKLFVGDGSILHVWL
VL: DIQMTQSPSSLSASVGDRVTITCRASQSVSSAVAWYQQKPGKAPKLLIYSASSLYSGVPSRFSGSRSGTDFTLTISSLQPEDFATYYCQQAYYGYLFTFGQGTKVEIKR

Ki [1]: 41 nM
Kd [2]: 21 nM
IC50 [13]: 52 nM
koff [14]: 0.0086 s⁻¹
kon [14]: 420000 M⁻¹ s⁻¹
B5: anti-BACE1 Fab B1A4 (Fab, V domains shown)
VH: EVQLVESGGGLVQPGGSLRLSCAASGFNISYSSIHWVRQAPGKGLEWVAYISPSSSYTSYADSVKGRFTISADTSKNTAYLQMNSLRAEDTAVYYCARHYYVSVGSGIDYWGQGTLVTVSS
VL: DIQMTQSPSSLSASVGDRVTITCRASQSVSSAVAWYQQKPGKAPKLLIYSASSLYSGVPSRFSGSRSGTDFTPTISSLQPEDFATYYCQQASASPYALITFGQGTKVEIKR

Kd [9]: 950 nM
Ki [10]: 1.5 µM
fold (KD compared with cdMMP-12 wt) [11]: 2.2 fold
fold (KI compared with cdMMP-12 mutant D4) [12]: 16 fold
B6: anti-MMP-12 Fab LH6 (Fab, V domains shown)
VH: EVQLVESGGGLVQPGGSLRLSCAASGFNLSYSYMHWVRQAPGKGLEWVASIYPSYGSTYYADSVKGRFTISADTSKNTAYLQMNSLRAEDTAVYYCARDLEESLPKRARTAVSKELESVPYVMDYWGQGTLVTVSS
VL: DIQMTQSPSSLSASVGDRVTITCRASQSVSSAVAWYQQKPGKAPKLLIYSASSLYSGVPSRFSGSRSGTDFTLTISSLQPEDFATYYCQQSSHYASPPITFGQGTKVEIKR

Ki [1]: 35 nM
Kd [15]: 16 nM
IC50 [16]: 45 nM
B7: anti-BACE1 IgG B1A4 (antibody, V domains shown)
VH: EVQLVESGGGLVQPGGSLRLSCAASGFNISYSSIHWVRQAPGKGLEWVAYISPSSSYTSYADSVKGRFTISADTSKNTAYLQMNSLRAEDTAVYYCARHYYVSVGSGIDYWGQGTLVTVSS
VL: DIQMTQSPSSLSASVGDRVTITCRASQSVSSAVAWYQQKPGKAPKLLIYSASSLYSGVPSRFSGSRSGTDFTPTISSLQPEDFATYYCQQASASPYALITFGQGTKVEIKR

Kd [9]: 720 nM
fold (KD compared with cdMMP-12 wt) [11]: 10 fold
B8: anti-MMP-12 Fab LG4 (Fab, V domains shown)
VH: EVQLVESGGGLVQPGGSLRLSCAASGFNLYYSYMHWVRQAPGKGLEWVASISSYYGYTSYADSVKGRFTISADTSKNTAYLQMNSLRAEDTAVYYCARSPIVYYELFMFIDMGAQGWKYGMDYWGQGTLVTVSS
VL: DIQMTQSPSSLSASVGDRVTITCRASQSVSSAVAWYQQKPGKAPKLLIYSASSLYSGVPSRFSGSRSGTDFTLTISSLQPEDFATYYCQQTFYPFTFGQGTKVEIKR

Ki [1]: 210 nM
Kd [2]: 31 nM
IC50 [17]: 270 nM
koff [18]: 0.013 s⁻¹
kon [18]: 410000 M⁻¹ s⁻¹
B9: anti-BACE1 Fab B1B3 (Fab, V domains shown)
VH: EVQLVESGGGLVQPGGSLRLSCAASGFNISYYSMHWVRQAPGKGLEWVASISPYYGSTYYADSVKGRFTISADTSKNTAYLQMNSLRAEDTAVYYCARERSSCPVGWRDSRFGADGYGLEYWGQGTLVTVSS
VL: DIQMTQSPSSLSASVGDRVTITCRASQSVSSAVAWYQQKPGKAPKLLIYSASSLYSGVPSRFSGSRSGTDFTLTISSLQPEDFATYYCQQSGHYHSLITFGQGTKVEIKR

— US20200392251A1
